In patent US20190308168A1:

Experiments:
Settings in all cases: scale: mg Gammanorm/ml chromatography matrix(gel)
[1] = target: GAMMANORM 165 mg/ml (Octapharma no. 00 86 64), human normal immunoglobulin (human); assay: column dynamic binding capacity at 10% breakthrough, before NaOH incubation
[2] = target: GAMMANORM 165 mg/ml (Octapharma no. 00 86 64), human normal immunoglobulin (human); assay: column dynamic binding capacity at 10% breakthrough, after 1 h accumulated in 0.5 M NaOH
[3] = target: GAMMANORM 165 mg/ml (Octapharma no. 00 86 64), human normal immunoglobulin (human); assay: column dynamic binding capacity at 10% breakthrough, after 3 h accumulated in 0.5 M NaOH
[4] = target: GAMMANORM 165 mg/ml (Octapharma no. 00 86 64), human normal immunoglobulin (human); assay: column dynamic binding capacity at 10% breakthrough, after 5 h accumulated in 0.5 M NaOH
[5] = target: GAMMANORM 165 mg/ml (Octapharma no. 00 86 64), human normal immunoglobulin (human); assay: column dynamic binding capacity at 10% breakthrough, after 10 h accumulated in 0.5 M NaOH
[6] = target: GAMMANORM 165 mg/ml (Octapharma no. 00 86 64), human normal immunoglobulin (human); assay: column dynamic binding capacity at 10% breakthrough, after 15 h accumulated in 0.5 M NaOH
[7] = target: GAMMANORM 165 mg/ml (Octapharma no. 00 86 64), human normal immunoglobulin (human); assay: column dynamic binding capacity at 10% breakthrough, after 20 h accumulated in 0.5 M NaOH

## MABSELECT SURE ligand (four domains originating from the domain B analogue Z, stabilized against high pH by protein engineering), coupled to agarose particles (designed binder)
[1]
  Capacity (Start Capacity 1): 28.4
  Capacity (Start Capacity 2): 28.1
[2]
  Capacity after 1 h: 29.3
[3]
  Capacity after 3 h: 28.4
[4]
  Capacity after 5 h: 28.2
[5]
  Capacity after 10 h: 27.9
[6]
  Capacity after 15 h: 27
[7]
  Capacity after 20 h: 25.9

## MABSELECT ligand (recombinant Protein A consisting of five homologous domains E, D, A, B, C), coupled to agarose particles (from UniProt P38507 37-327)
[1]
  Capacity (Start Capacity 1): 29
  Capacity (Start Capacity 2): 29
[2]
  Capacity after 1 h: 27
[3]
  Capacity after 3 h: 23.1
[4]
  Capacity after 5 h: 20.3
[5]
  Capacity after 10 h: 15.8
[6]
  Capacity after 15 h: 12.5
[7]
  Capacity after 20 h: 10.1
